Source: patent publication US20260250418A1 (BIOCYTOGEN PHARMACEUTICALS BEIJING, published 2026)

T1: human HER4 (hHER4, ACRO Biosystems Inc., Cat #: ER4-H5221), recombinant His-tagged (human, UniProt Q15303 26-649)
T1 construct: Bought protein; not shown: His tag
T1 sequence (looked up): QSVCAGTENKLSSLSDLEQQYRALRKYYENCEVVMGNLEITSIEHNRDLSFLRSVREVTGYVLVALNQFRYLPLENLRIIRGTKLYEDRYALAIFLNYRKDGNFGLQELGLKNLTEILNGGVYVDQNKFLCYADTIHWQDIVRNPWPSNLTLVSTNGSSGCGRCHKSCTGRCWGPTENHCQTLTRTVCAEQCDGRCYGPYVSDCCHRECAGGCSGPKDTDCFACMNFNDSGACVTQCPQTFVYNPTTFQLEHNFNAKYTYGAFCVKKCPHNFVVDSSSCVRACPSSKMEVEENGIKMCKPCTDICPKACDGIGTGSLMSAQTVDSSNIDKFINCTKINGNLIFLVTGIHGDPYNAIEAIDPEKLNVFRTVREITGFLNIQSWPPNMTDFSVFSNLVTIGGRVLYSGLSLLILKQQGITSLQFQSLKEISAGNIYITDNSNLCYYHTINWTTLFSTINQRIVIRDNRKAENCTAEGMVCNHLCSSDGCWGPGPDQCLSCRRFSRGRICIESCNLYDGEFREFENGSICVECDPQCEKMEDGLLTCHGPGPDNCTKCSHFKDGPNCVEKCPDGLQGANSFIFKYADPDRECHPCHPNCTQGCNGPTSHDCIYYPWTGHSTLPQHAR

T2: His-tagged dog HER3 protein (dHER3, SEQ ID NO: 45) (dog, UniProt P21860 20-642 (human entry))
T2 construct: not shown: His tag
T2 chain: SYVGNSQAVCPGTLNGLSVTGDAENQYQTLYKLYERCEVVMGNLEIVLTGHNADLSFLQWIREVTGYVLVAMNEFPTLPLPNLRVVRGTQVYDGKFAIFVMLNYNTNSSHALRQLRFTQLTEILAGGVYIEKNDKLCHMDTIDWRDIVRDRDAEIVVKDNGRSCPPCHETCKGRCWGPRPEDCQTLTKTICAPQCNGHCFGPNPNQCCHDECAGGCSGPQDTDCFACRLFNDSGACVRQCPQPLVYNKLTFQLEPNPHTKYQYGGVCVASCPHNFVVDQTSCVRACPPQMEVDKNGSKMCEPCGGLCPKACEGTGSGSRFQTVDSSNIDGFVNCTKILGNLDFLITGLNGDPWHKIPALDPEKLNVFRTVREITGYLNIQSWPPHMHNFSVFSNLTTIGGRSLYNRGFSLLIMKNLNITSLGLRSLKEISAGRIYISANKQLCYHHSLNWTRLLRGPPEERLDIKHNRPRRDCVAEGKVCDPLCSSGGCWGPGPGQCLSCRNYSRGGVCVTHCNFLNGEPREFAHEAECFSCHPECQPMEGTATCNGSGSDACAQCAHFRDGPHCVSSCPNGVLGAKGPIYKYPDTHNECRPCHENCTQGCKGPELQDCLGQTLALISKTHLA

T3: dog HER3 on CHO-dHER3 cells (dog, UniProt P21860 20-1342 (human entry))
T3 construct: CHO-S cells transfected with dHER3
T3 chain: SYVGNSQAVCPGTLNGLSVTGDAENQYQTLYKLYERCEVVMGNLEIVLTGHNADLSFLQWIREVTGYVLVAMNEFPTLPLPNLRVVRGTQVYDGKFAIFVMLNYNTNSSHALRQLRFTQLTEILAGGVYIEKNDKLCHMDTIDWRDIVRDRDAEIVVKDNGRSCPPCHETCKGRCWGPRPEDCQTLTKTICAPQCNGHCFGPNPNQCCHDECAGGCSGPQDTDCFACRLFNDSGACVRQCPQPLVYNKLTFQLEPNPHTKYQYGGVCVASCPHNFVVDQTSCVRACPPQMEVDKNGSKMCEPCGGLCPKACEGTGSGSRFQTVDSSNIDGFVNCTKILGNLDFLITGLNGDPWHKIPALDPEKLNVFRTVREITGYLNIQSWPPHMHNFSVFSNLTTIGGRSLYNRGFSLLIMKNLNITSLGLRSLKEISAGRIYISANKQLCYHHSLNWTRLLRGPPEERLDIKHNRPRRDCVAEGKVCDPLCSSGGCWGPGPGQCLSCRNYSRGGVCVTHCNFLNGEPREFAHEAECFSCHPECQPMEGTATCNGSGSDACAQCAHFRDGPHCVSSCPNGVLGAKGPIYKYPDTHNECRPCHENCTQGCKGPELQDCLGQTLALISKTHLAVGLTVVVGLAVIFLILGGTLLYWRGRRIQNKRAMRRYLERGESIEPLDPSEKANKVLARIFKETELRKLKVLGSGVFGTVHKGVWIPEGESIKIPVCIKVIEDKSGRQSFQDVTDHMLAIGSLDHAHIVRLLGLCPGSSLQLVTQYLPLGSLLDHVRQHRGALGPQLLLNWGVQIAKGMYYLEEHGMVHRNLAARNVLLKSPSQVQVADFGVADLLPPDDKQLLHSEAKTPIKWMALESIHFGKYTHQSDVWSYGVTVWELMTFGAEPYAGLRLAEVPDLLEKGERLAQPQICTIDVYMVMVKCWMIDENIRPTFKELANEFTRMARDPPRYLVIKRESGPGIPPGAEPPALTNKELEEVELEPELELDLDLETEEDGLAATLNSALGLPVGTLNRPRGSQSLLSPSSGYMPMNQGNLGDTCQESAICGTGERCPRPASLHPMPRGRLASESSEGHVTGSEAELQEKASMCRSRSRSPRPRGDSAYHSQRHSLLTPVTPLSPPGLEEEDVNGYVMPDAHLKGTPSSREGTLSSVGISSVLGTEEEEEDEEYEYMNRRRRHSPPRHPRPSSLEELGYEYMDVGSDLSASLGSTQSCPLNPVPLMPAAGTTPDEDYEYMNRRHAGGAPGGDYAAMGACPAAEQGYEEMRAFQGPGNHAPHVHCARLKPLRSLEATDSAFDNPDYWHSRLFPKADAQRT

T4: monkey (Macaca fascicularis) HER3 on CHO-fasHER3 cells (monkey (Macaca fascicularis), UniProt P21860 20-643 (human entry))
T4 construct: CHO-S cells transfected with fasHER3
T4 chain: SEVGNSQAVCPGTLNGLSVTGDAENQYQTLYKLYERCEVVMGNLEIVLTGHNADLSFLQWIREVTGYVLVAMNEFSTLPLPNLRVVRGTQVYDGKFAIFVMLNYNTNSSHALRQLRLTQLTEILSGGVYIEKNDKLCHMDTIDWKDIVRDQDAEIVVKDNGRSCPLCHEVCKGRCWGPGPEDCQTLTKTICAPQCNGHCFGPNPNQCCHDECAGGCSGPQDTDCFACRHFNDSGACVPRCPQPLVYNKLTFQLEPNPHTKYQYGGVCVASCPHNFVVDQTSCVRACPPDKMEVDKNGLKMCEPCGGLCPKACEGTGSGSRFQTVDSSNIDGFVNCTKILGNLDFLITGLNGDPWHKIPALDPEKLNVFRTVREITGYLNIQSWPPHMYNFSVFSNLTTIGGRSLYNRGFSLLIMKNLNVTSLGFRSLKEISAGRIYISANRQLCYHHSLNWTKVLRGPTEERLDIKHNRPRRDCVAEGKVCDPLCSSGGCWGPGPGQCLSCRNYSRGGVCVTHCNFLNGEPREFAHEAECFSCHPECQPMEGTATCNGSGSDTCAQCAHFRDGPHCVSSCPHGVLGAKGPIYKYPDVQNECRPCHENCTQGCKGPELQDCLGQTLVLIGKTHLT


How the values were obtained:
[1] = target: T1, human HER4 (hHER4, ACRO Biosystems …); assay: SPR (Biacore 8K), antibody captured on Protein A chip, His-tagged hHER4 injected at 0-400 nM; response (RU) plotted against concentration [panel F]
Description: The cross binding activities of anti-HER3 antibodies to HER family proteins were determined by surface plasmon resonance (SPR) using Biacore (Biacore, INC, Piscataway N.J.) 8K biosensor equipped with pre-immobilized Protein A sensor chips.
Purified anti-HER3 antibodies were diluted to 2 μg/mL and then injected into the Biacore 8K biosensor at 10 μL/min for about 50 seconds to achieve a desired protein density (e.g., about 200 response units (RU)). […] The association phase lasted for 180 s and the dissociation phase lasted 400 s followed by a regeneration step with Glycine (pH 2.0, 30 μL/min for 30 seconds). For isotype control (ISO), an antibody targeting an irrelevant target protein was used.

[2] = target: T5, His-tagged human HER3 protein (hHER3, ACRO Biosystems Inc., Cat #: ER3-H5223) (human, UniProt P21860 20-643); assay: SPR, Ab captured on Protein A
T5 construct: Bought protein; also called hHER3-His; not shown: His tag
Description: (§1) Purified anti-HER3 antibodies was captured on the Protein A chip (Series S Sensor Chip Protein A) for the detection. […] For ISO control, an antibody targeting an irrelevant target protein was used. The flow rate was 30 μL/min, the binding and dissociation time were set to 180 s and 400 s, respectively. The chip was regenerated after the last injection of each titration with a glycine solution (pH 2.0) at 30 μL/min for 30 seconds.
(§2) As a person of ordinary skill in the art would understand, the same method with appropriate adjustments for parameters (e.g., antibody concentration) was performed for each tested antibody.

[3] = target: T2, His-tagged dog HER3 protein (dHER3, SEQ …); assay: SPR, Ab captured on Protein A
Description: as §1, §2

[4] = target: T6, His-tagged monkey HER3 protein (fasHER3, Sino Biological, Inc., Cat #: 90043-K08H) (monkey); assay: SPR, Ab captured on Protein A
T6 construct: Bought protein
Description: as §1, §2

[5] = target: T7, mouse HER3 on CHO-mHER3 cells (mouse, UniProt Q61526 20-641); assay: flow cytometry, transfected CHO cells
T7 construct: CHO-S cells transfected with mHER3
Description: (§3) CHO-hHER3 cells, CHO-mHER3 cells, CHO-fasHER3 cells or CHO-dHER3 cells were transferred to a 96-well plate at a density of 5×10⁴ cells/well respectively. The anti-HER3 antibodies were added to the 96-well plate, and incubated at 4° C. for 30 min.

[6] = target: T3, dog HER3 on CHO-dHER3 cells; assay: flow cytometry, transfected CHO cells
Description: as §3

[7] = target: T4, monkey (Macaca fascicularis) HER3 on …; assay: flow cytometry, transfected CHO cells
Description: as §3

[8] = target: T8, human HER3 on CHO-hHER3 cells (human, UniProt P21860 20-643); assay: flow cytometry, transfected CHO cells
T8 construct: CHO-S cells transfected with hHER3
Description: as §3

T7 sequence (Q61526 20-641): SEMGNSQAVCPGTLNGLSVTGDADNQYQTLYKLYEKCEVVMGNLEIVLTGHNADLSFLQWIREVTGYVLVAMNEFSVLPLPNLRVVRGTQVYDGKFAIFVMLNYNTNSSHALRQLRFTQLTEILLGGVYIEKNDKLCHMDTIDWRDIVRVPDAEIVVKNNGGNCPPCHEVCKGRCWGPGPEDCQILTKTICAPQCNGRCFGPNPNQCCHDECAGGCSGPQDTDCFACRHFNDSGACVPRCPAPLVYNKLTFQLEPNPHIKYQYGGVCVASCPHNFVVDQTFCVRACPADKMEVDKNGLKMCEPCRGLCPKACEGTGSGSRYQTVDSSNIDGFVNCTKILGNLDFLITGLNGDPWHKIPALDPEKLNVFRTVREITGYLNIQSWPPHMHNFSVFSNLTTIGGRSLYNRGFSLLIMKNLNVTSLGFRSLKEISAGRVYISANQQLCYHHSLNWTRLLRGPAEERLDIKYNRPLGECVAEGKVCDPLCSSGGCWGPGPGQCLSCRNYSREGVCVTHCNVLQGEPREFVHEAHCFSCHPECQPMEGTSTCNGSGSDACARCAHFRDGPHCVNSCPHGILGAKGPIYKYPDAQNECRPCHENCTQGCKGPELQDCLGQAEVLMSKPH

Row | binding result [1] | Kd [2] [nM] | koff [2] [s⁻¹] | kon [2] [M⁻¹ s⁻¹] | Kd [3] [nM] | koff [3] [s⁻¹] | kon [3] [M⁻¹ s⁻¹] | Kd [4] [nM] | koff [4] [s⁻¹] | kon [4] [M⁻¹ s⁻¹] | Percentage of Positive Cells [5] [%] | Percentage of Positive Cells [6] [%] | Percentage of Positive Cells [7] [%] | Percentage of Positive Cells [8] [%] | Binder
1 | no binding (tested: 400 nM) |  |  |  |  |  |  |  |  |  |  |  |  |  | Patritumab analog (antibody, V domains shown, also called positive control) VH: QVQLQQWGAGLLKPSETLSLTCAVYGGSFSGYYWSWIRQPPGKGLEWIGEINHSGSTNYNPSLKSRVTISVETSKNQFSLKLSSVTAADTAVYYCARDKWTWYFDLWGRGTLVTVSS VL: not shown
2 |  | 81.4 | 0.00769 | 94500 | 77.4 | 0.0045 | 58100 | 14.4 | 0.00098 | 68000 | 58.9 | 38.1 | 62.9 | 68 | anti-HER3 antibody 1D6 (antibody, V domains shown, common light chain) VH: EVQLVQSGPGLVKPSETLSLTCTVSGGSISSNNYYWAWIRQPPGKGLEWIGSLYYTGRAYYKSSLKSRVTISVDTSNDQFSLRLTSVTAADTAIYYCARHDCGNTCLNWFDRWGQGTLVTVSS VL: not shown
